Measurements reported in paper PMC2767265 (Nature structural & molecular biology, 2008).
Like-named read-outs stand apart in the source and are kept apart here.

B1: FtsYΔN1 (FtsY residues 221-497, lacks the A domain and the first helix of the N domain) (domain or fragment, E. coli, UniProt P10121 221-497, looked up)
chain: KKIDDDLFEELEEQLLIADVGVETTRKIITNLTEGASRKQLRDAEALYGLLKEEMGEILAKVDEPLNVEGKAPFVILMVGVNGVGKTTTIGKLARQFEQQGKSVMLAAGDTFRAAAVEQLQVWGQRNNIPVIAQHTGADSASVIFDAIQAAKARNIDVLIADTAGRLQNKSHLMEELKKIVRVMKKLDVEAPHEVMLTIDASTGQNAVSQAKLFHEAVGLTGITLTKLDGTAKGGVIFSVADQFGIPIRYIGVGERIEDLRPFKADDFIEALFARED
B2: FtsY204 (FtsY residues 204-497, includes helix N1) (domain or fragment, E. coli, UniProt P10121 204-497, looked up)
chain: LKTKENLGSGFISLFRGKKIDDDLFEELEEQLLIADVGVETTRKIITNLTEGASRKQLRDAEALYGLLKEEMGEILAKVDEPLNVEGKAPFVILMVGVNGVGKTTTIGKLARQFEQQGKSVMLAAGDTFRAAAVEQLQVWGQRNNIPVIAQHTGADSASVIFDAIQAAKARNIDVLIADTAGRLQNKSHLMEELKKIVRVMKKLDVEAPHEVMLTIDASTGQNAVSQAKLFHEAVGLTGITLTKLDGTAKGGVIFSVADQFGIPIRYIGVGERIEDLRPFKADDFIEALFARED
modifications: for NMR: 13C on the methyl groups of isoleucine, leucine and valine
B3: FtsY lacking the first 46 amino acids of the A domain (wild-type reference) (domain or fragment, E. coli, UniProt P10121 47-497, looked up)
chain: ASEQAVEEQPQAHTEAEAETFAADVVEVTEQVAESEKAQPEAEVVAQPEPVVEETPEPVAIEREELPLPEDVNAEAVSPEEWQAEAETVEIVEAAEEEAAKEEITDEELETALAAEAAEEAVMVVPPAEEEQPVEEIAQEQEKPTKEGFFARLKRSLLKTKENLGSGFISLFRGKKIDDDLFEELEEQLLIADVGVETTRKIITNLTEGASRKQLRDAEALYGLLKEEMGEILAKVDEPLNVEGKAPFVILMVGVNGVGKTTTIGKLARQFEQQGKSVMLAAGDTFRAAAVEQLQVWGQRNNIPVIAQHTGADSASVIFDAIQAAKARNIDVLIADTAGRLQNKSHLMEELKKIVRVMKKLDVEAPHEVMLTIDASTGQNAVSQAKLFHEAVGLTGITLTKLDGTAKGGVIFSVADQFGIPIRYIGVGERIEDLRPFKADDFIEALFARED

Experiments:
Experiment in all cases: other fluorescence titration
[1] = target: T1, Ffh (E. coli SRP protein), wild type (E. coli, UniProt P0AGD7 1-453)
T1 sequence (looked up): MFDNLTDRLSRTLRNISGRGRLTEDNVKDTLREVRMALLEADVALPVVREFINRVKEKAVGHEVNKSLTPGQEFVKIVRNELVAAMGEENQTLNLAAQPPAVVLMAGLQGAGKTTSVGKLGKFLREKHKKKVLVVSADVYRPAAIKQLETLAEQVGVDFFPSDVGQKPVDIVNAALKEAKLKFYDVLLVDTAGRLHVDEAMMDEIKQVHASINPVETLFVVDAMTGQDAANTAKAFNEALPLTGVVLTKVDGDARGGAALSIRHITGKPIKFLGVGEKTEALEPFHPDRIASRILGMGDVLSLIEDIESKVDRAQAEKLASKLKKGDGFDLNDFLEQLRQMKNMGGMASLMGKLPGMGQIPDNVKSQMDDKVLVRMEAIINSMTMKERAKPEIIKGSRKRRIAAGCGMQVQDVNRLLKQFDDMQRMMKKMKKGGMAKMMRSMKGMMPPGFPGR

[2] = target: T1, Ffh (E. coli SRP protein), wild type; remark: listed apart in the source
[3] = target: T1, Ffh (E. coli SRP protein), wild type; remark: listed apart in the source

Binder	Kd [1] [nM]	koff [1] [s⁻¹]	kon [1] [M⁻¹ s⁻¹]	Kd [2] [nM]	koff [2] [s⁻¹]	kon [2] [M⁻¹ s⁻¹]	binding result [3]
B1	7.98 ± 1.1	5.47e-06	685	14.9 ± 2.1	0.000605	40500	
B2							binds
B3	82.7 ± 13	8.6e-06	104	68.4 ± 4.2	0.00265	38800	
